# Laboratory results: the Human Domainome abundance scans (Beltran et al. 2025)
# ± gives the uncertainty stated by the source.
# B1: Membrane-associated guanylate kinase, WW and PDZ domain-containing protein 2, residues 601 to 682; numbered along this chain, Q86UL8 (parent)
# chain: AELMTLTIVKGAQGFGFTIADSPTGQRVKQILDIQGCPGLCEGDLIVEINQQNVQNLSHTEVVDILKDCPIGSETSLIIHRG
# Variants of: B1
# Experiment: abundance fitness (aPCA) (normalised: wild type 0, dead -1); higher = more abundant; growth selection in yeast, the domain comes from the species named
# Settings: Homo sapiens
row,Variant,abundance fitness
1,I49F,-0.065 ± 0.24
2,I49C,-0.094 ± 0.11
3,I49A,-0.173 ± 0.078
4,P38S,-0.056 ± 0.094
5,P38K,-0.001 ± 0.17
6,P38C,-0.158 ± 0.11
7,P38E,-0.11 ± 0.09
8,P38R,-0.13 ± 0.098
9,P38L,0.037 ± 0.098
10,P38V,-0.097 ± 0.088
11,P38W,-0.09 ± 0.15
12,P38G,-0.067 ± 0.077
13,P38A,-0.096 ± 0.12
14,P38Q,-0.121 ± 0.14
15,P38T,-0.038 ± 0.096
16,P38H,-0.363 ± 0.36
17,G43Q,0.068 ± 0.14
18,G43F,-0.275 ± 0.17
19,G43M,-0.261 ± 0.17
20,G43W,-0.206 ± 0.099
21,G43A,-0.086 ± 0.097
22,G43V,-0.761 ± 0.24
23,G43S,-0.104 ± 0.087
24,G43D,0.023 ± 0.21

row,Variant,abundance fitness
1,G43R,-0.182 ± 0.079
2,G43E,0.059 ± 0.2
3,G43K,0.199 ± 0.36
4,G43C,-0.187 ± 0.2
5,G43L,0 ± 0.11
6,G43T,-0.121 ± 0.12
7,G43H,0.004 ± 0.39
8,G39S,-0.035 ± 0.084
9,G39R,-0.167 ± 0.16
10,G39E,-0.255 ± 0.14
11,G39A,-0.052 ± 0.1
12,G39D,-0.197 ± 0.17
13,G39N,-0.043 ± 0.24
14,G39W,-0.211 ± 0.25
15,G39H,0.069 ± 0.25
16,G39K,-0.192 ± 0.2
17,G39M,-0.192 ± 0.16
18,G39T,-0.017 ± 0.2
19,G39L,-0.22 ± 0.14
20,G39V,-0.392 ± 0.11
21,G39P,-0.083 ± 0.13
22,D44Q,-0.567 ± 0.16
23,D44M,-0.572 ± 0.24
24,D44C,-0.989 ± 0.28

row,Variant,abundance fitness
1,D44Y,-0.71 ± 0.2
2,D44G,-0.859 ± 0.11
3,D44T,-0.95 ± 0.26
4,D44E,-0.874 ± 0.22
5,D44N,-0.21 ± 0.1
6,D44A,-0.263 ± 0.11
7,D44S,-0.618 ± 0.12
8,D44L,-1.27 ± 0.3
9,D44H,-0.79 ± 0.31
10,L40G,-0.752 ± 0.13
11,L40P,-0.232 ± 0.09
12,L40S,-0.616 ± 0.21
13,L40V,-0.061 ± 0.081
14,L40A,-0.108 ± 0.17
15,L40F,0.047 ± 0.25
16,L40T,-0.498 ± 0.097
17,L40M,-0.254 ± 0.17
18,E42F,-0.123 ± 0.1
19,E42M,0.036 ± 0.063
20,E42T,-0.015 ± 0.061
21,E42P,0.061 ± 0.075
22,E42S,-0.049 ± 0.057
23,E42N,-0.087 ± 0.11
24,E42D,-0.152 ± 0.076

row,Variant,abundance fitness
1,E42H,-0.23 ± 0.2
2,E42I,-0.087 ± 0.089
3,E42K,-0.016 ± 0.069
4,E42C,-0.123 ± 0.064
5,E42L,-0.028 ± 0.05
6,E42W,-0.171 ± 0.064
7,E42G,-0.114 ± 0.052
8,E42R,-0.1 ± 0.052
9,E42V,-0.062 ± 0.05
10,L45G,-0.096 ± 0.34
11,L45A,-0.088 ± 0.43
12,L45W,-0.161 ± 0.15
13,L45R,-0.244 ± 0.32
14,L45V,-0.232 ± 0.12
15,L45S,0.256 ± 0.26
16,L45M,0.089 ± 0.17
17,G36P,-0.057 ± 0.15
18,G36E,0.037 ± 0.17
19,G36V,-0.009 ± 0.1
20,G36C,-0.044 ± 0.09
21,G36S,-0.158 ± 0.081
22,G36R,-0.069 ± 0.08
23,G36N,0.055 ± 0.21
24,G36T,0.064 ± 0.21

row,Variant,abundance fitness
1,G36L,-0.261 ± 0.22
2,G36M,0.04 ± 0.13
3,G36H,-0.126 ± 0.32
4,G36Q,-0.054 ± 0.2
5,G36F,-0.245 ± 0.22
6,C41M,-0.04 ± 0.05
7,C41Q,-0.001 ± 0.061
8,C41N,-0.012 ± 0.081
9,C41G,-0.046 ± 0.03
10,C41A,0.042 ± 0.04
11,C41E,0.01 ± 0.044
12,C41K,-0.036 ± 0.056
13,C41H,0.144 ± 0.084
14,C41I,0.057 ± 0.062
15,C41D,0.036 ± 0.066
16,C41T,0.046 ± 0.048
17,C41L,-0.005 ± 0.037
18,C41F,0.016 ± 0.088
19,C41W,-0.058 ± 0.039
20,C41P,-1.02 ± 0.16
21,C41S,0.027 ± 0.038
22,C41R,-0.022 ± 0.029
23,V47C,-0.066 ± 0.09
24,V47E,0.004 ± 0.12

row,Variant,abundance fitness
1,V47K,-0.195 ± 0.16
2,V47A,0.036 ± 0.082
3,V47D,-0.161 ± 0.33
4,V47Y,-0.337 ± 0.18
5,V47S,-0.09 ± 0.069
6,V47N,-0.291 ± 0.39
7,V47G,-0.164 ± 0.063
8,V47W,-0.09 ± 0.11
9,V47I,-0.165 ± 0.11
10,V47Q,0.033 ± 0.26
11,V47R,-0.018 ± 0.073
12,V47F,0.185 ± 0.38
13,E48R,-0.103 ± 0.056
14,E48H,0.091 ± 0.43
15,E48S,-0.004 ± 0.089
16,E48M,-0.144 ± 0.2
17,E48L,-0.114 ± 0.079
18,E48W,-0.158 ± 0.12
19,E48D,-0.444 ± 0.23
20,E48K,-0.117 ± 0.11
21,E48V,-0.086 ± 0.087
22,E48Q,-0.098 ± 0.17
23,E48Y,0.006 ± 0.26
24,E48I,-0.871 ± 0.47

row,Variant,abundance fitness
1,E48A,-0.193 ± 0.094
2,E48C,-0.145 ± 0.1
3,E48T,-0.226 ± 0.18
4,I46V,-0.079 ± 0.18
5,I46T,-0.587 ± 0.27
6,I46L,0.236 ± 0.32
7,I46M,0.164 ± 0.14
8,C37W,-0.287 ± 0.18
9,C37E,0.005 ± 0.12
10,C37Q,-0.113 ± 0.16
11,C37P,-0.384 ± 0.18
12,C37M,-0.16 ± 0.15
13,C37A,-0.195 ± 0.11
14,C37I,-0.173 ± 0.27
15,C37D,-0.052 ± 0.1
16,C37F,0.204 ± 0.49
17,C37R,-0.163 ± 0.08
18,C37G,-0.28 ± 0.097
19,C37S,0.012 ± 0.18
20,C37T,-0.05 ± 0.15
21,C37Y,-0.036 ± 0.21
22,C37K,-0.208 ± 0.11
23,C37V,-0.119 ± 0.099
